Experiment [1] concerns the target Fc gamma receptors of human macrophages. In words: cytofluorometry, human macrophages with 5 µg/ml hybrid for 2 h at 37 °C, anti-Fc-FITC.
The target is the same in experiment [2]. In words: cytofluorometry, human macrophages with 5 µg/ml hybrid for 20 h at 37 °C, anti-Fc-FITC.
Experiment [3] addresses Fc gamma receptors of NK cells. In words: cytofluorometry, NK cells, 24 h at 37 °C.
In experiment [4] the target is Fc gamma receptors of NK cells. Nature of the experiment: cytofluorometry, NK cells, 48 h at 37 °C.
Experiment [5] concerns the target Fc gamma receptors of NK cells. In words: cytofluorometry, NK cells, 30 min at 37 °C.
For experiment [6], the target named is Fc gamma receptors of NK cells. Nature of the experiment: cytofluorometry, NK cells, 10 µg/ml, 30 min at 37 °C.
For experiment [7], the target named is Fc gamma receptors of NK cells. Nature of the experiment: cytofluorometry, NK cells, 10 µg/ml, no competing IgG (same values as Table 9).
Experiment [8] concerns the target Fc gamma receptors of NK cells. Nature of the experiment: competition, cytofluorometry on NK cells; human IgG at 1 µg/ml against FcSDHFSTIE-N3-DBCO-A647 at 10 µg/ml.
For experiment [9], the target named is Fc gamma receptors of NK cells. In words: competition, cytofluorometry on NK cells; human IgG at 10 µg/ml against FcSDHFSTIE-N3-DBCO-A647 at 10 µg/ml.
The target of experiment [10] is Fc gamma receptors of NK cells. In words: competition, cytofluorometry on NK cells; human IgG at 100 µg/ml against FcSDHFSTIE-N3-DBCO-A647 at 10 µg/ml.
In experiment [11] the target is Fc gamma receptors of NK cells. In words: competition, cytofluorometry on NK cells; human IgG at 1000 µg/ml against FcSDHFSTIE-N3-DBCO-A647 at 10 µg/ml.
Experiment [12] has as its target Fc gamma receptors of NK cells. Nature of the experiment: competition, cytofluorometry on NK cells; human IgG at 10000 µg/ml against FcSDHFSTIE-N3-DBCO-A647 at 10 µg/ml.

Take “FcLALAPG-N3-DBCO-β60-74Cit (from UniProt P01857 104-330)”: the fluorescence (Macrophages) was found to be 502 in experiment [1] and 404 in experiment [2].
As for “FcSDHFSTIE-N3-DBCO-PEG3-β60-74cit-lysineA488 (from UniProt P01857 104-330)”, the MFI worked out at 4090 in [3], 4340 in experiment [4] and 4590 in [5].
Take “FcWT-N3-DBCO-β60-74Cit (from UniProt P01857 104-330)”: the fluorescence (Macrophages) in experiment [1] is 808; in [2] it was 1000.
Regarding “FcLALAPG-N3-DBCO-A647 (from UniProt P01857 104-330)”, the MFI in experiment [6] came out at 450.
Take “FcSDHFSTIE-N3-DBCO-A488 (from UniProt P01857 104-330)”: the MFI was 2350 in experiment [3], 1710 in experiment [4] and 2970 in [5].
In the case of “FcSDHFSTIE-N3-DBCO-β60-74Cit (from UniProt P01857 104-330)”, the values for the fluorescence (Macrophages) in [1] and in [2] were 1330 and 1460, respectively.
Turning to “FcSDHFSTIE-N3-DBCO-A647 (from UniProt P01857 104-330)”, the MFI in experiment [6] and in [7] was 38500 throughout.
Turning to human IgG (antibody), the MFI of FcSDHFSTIE-N3-DBCO-A647 with competing IgG in experiment [8] amounted to 37900; in experiment [9] it was 38800; in [10], 36300; in experiment [11], 29500; in [12], 20500. Moreover, the RATIO of FcSDHFSTIE-N3-DBCO-A647 with competing IgG in experiment [8] came out at 179; in experiment [9], 183; in experiment [10], 171; in experiment [11], 139; in experiment [12], 96.6.
